Data published in PMC7969741.
Non-standard residues stand in square brackets, D forms with d.

Target: αV integrin (human (endogenous in SV40 immortalized human chondrocytes))

**Q.** For cyclo(RGD[dF]K) (also: conjugated to 3' end of Cy3-labelled 18-nt ssDNA) [cyclic peptide RGDfK (cRGDfK)], which tension gauge tether (TGT) assay: rupture of RGDfK-dsDNA tethers of 43 and 54 pN tension tolerance and loss of cell attachment, SV40 chondrocytes prechallenged with shear stress is on record?
**A.** > 43 pN
